Results taken from patent EP4631972A1, “SITE-SPECIFIC COUPLED PEGYLATED INTERLEUKIN-2 MUTANT WITH RECEPTOR AFFINITY PREFERENCE AND USE THEREOF” (priority 2022, dated 2024).
Side chains are listed from the residue outwards. maleimide = maleimide group on PEG that conjugates to a cysteine thiol

Columns and labels:
[1] = molecular target: T1, IL-2Rαβγ triple receptor (UniProt P01589 22-272; P14784 27-551; P31785 23-369); test: cell-based or functional assay
T1 sequence (looked up) 1: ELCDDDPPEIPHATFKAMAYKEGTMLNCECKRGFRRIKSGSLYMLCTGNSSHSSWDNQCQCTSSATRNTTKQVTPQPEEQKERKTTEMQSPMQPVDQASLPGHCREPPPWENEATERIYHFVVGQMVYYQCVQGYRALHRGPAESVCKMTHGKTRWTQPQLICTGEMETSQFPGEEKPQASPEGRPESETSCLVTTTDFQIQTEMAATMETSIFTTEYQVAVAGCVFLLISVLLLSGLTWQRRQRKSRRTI
T1 sequence (looked up) 2: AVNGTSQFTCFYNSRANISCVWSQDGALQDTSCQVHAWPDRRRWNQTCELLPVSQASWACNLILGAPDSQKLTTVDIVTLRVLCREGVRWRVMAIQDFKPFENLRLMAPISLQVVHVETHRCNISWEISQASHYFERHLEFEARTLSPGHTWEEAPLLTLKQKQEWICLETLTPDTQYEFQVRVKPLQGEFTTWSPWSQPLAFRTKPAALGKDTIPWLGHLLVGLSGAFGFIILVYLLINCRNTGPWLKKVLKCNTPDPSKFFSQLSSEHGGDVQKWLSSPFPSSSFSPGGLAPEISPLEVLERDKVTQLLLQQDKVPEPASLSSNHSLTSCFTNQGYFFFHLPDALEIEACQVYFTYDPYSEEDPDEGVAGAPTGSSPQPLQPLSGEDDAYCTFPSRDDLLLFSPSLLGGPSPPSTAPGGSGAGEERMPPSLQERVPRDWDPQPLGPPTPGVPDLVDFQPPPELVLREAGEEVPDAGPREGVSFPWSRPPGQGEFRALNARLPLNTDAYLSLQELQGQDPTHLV
T1 sequence (looked up) 3: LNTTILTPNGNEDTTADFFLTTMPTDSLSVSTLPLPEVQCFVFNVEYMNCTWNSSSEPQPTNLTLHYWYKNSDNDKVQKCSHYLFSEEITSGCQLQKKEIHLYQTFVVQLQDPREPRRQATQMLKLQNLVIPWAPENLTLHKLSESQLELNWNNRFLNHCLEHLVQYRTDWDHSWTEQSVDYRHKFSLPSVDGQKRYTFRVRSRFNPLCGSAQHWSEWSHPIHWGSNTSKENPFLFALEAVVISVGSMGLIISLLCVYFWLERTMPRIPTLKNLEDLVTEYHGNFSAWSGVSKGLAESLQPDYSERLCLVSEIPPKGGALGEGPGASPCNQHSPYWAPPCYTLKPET

[2] = molecular target: T1, IL-2Rαβγ triple receptor; test: cell-based or functional assay; remark: listed apart in the source
[3] = Pharmacokinetic study in mice, single administration, plasma concentration by ELISA; settings: 1 mg/kg s.c. single administration
Method: Balb/c mice were purchased, with 4 mice in each group. Each IL-2 mutant to be tested was administered subcutaneously once at a dose of 1 mg/kg. Blood was collected from the orbit at different time points after administration, and the plasma was separated and the plasma drug concentration was detected by ELISA. The main pharmacokinetic parameters were calculated, and C-T curve was plotted.

[4] = tested on: Treg cells; test: P-STAT5 activation in Treg cells of human PBMCs (flow cytometry); type: cell-based; settings: P-STAT5 MFI in CD3+/CD4+/CD25+ cells of human PBMCs, 30 min stimulation
Method: In the example, the activation effect of each mutant prepared in Example 6 on P-STAT5 in different cell subsets (Tregs, CD8+T cells, NK cells) from human PBMCs (Miaoshun Biotechnology) was detected.
Human PBMC cells were thawed and resuspended to 1.5×10^6 cells/ml in RPMI1640 medium containing 10% FBS. 100 µl was added to each well of a V-bottom 96-well culture plate. Each IL-2 mutant prepared in Example 6 was diluted 10-fold in series: 1000 nM was used as the working concentration for the first well, and then 100 µl/well of each serial dilution was added to each cultured cell, stimulated at 37°C for 30 min, and the reaction was terminated on ice. The cells were treated with a commercial fixative and permeabilization agent (BD biosciences 558049 & 558050), and stained with antibodies against CD3, CD4, CD25, and CD8 according to conventional methods. P-STAT5 antibody staining was also performed (Table 7) to detect the mean fluorescence intensity (MFI) of P-STAT5 in CD3+/CD4+/CD25+ (Treg cells) and CD8+/CD3+ cells ([…]) by flow cytometry.

B1: 80K-1PEG-IL2-N88R-D109C (ligand)
chain: APTSSSTKKTQLQLEHLLLDLQMILNGINNYKNPKLTRMLTFKFYMPKKATELKHLQCLEEELKPLEEVLNLAQSKNFHLRPRDLISXINVIVLELKGSETTFMCEYAXETATIVEFLNRWITFSQSIISTLT
modifications: one 80 kD PEG-maleimide conjugated to Cys 109
With B1 the “EC50 for activation of the IL-2αβγ triple receptor (STAT5 luciferase reporter gene assay)” value (from here on “EC50 … (STAT5 luciferase reporter gene assay)”) [1] was 0.407 nM.

B2: 80k-1PEG-IL2-N88R-S75C (ligand)
chain: APTSSSTKKTQLQLEHLLLDLQMILNGINNYKNPKLTRMLTFKFYMPKKATELKHLQCLEEELKPLEEVLNLAQC(PEG 80 kDa)KNFHLRPRDLISRINVIVLELKGSETTFMCEYADETATIVEFLNRWITFSQSIISTLT
With B2 the “EC50 for activation of the IL-2αβγ triple receptor (STAT5 luciferase reporter gene assay, 293EC18/αβγ/JAK3/STAT5 cells)” value [2] was 1.26 nM.

B3: 80K-1PEG-IL2-N88R-N77C (ligand)
chain: APTSSSTKKTQLQLEHLLLDLQMILNGINNYKNPKLTRMLTFKFYMPKKATELKHLQCLEEELKPLEEVLNLAQSKC(PEG 80 kDa)FHLRPRDLISRINVIVLELKGSETTFMCEYADETATIVEFLNRWITFSQSIISTLT
With B3 the “EC50 for activation of the IL-2αβγ triple receptor (STAT5 luciferase reporter gene assay, 293EC18/αβγ/JAK3/STAT5 cells)” value [2] was 0.184 nM and the “EC50 … (STAT5 luciferase reporter gene assay)” value [1] was 0.246 nM.

B4: 20K-1PEG-IL2-N88R-N77C (ligand)
chain: APTSSSTKKTQLQLEHLLLDLQMILNGINNYKNPKLTRMLTFKFYMPKKATELKHLQCLEEELKPLEEVLNLAQSKC([maleimide-PEG 20 kDa])FHLRPRDLISRINVIVLELKGSETTFMCEYADETATIVEFLNRWITFSQSIISTLT
modifications: not fully specified
With B4 the “EC50 … (STAT5 luciferase reporter gene assay)” value [1] was 0.0705 nM.

B5: 80k-1PEG-IL2-N88R-N33C (ligand)
chain: APTSSSTKKTQLQLEHLLLDLQMILNGINNYKC(PEG 80 kDa)PKLTRMLTFKFYMPKKATELKHLQCLEEELKPLEEVLNLAQSKNFHLRPRDLISRINVIVLELKGSETTFMCEYADETATIVEFLNRWITFSQSIISTLT
In the case of B5, the “EC50 for activation of the IL-2αβγ triple receptor (STAT5 luciferase reporter gene assay, 293EC18/αβγ/JAK3/STAT5 cells)” value [2] is reported as 0.00386 nM.

B6: 20K-1PEG-IL2-N88R-N77C: IL-2 mutant N88R, N77C, conjugation site 77, PEG molecular weight 20kD (conjugate)
chain: APTSSSTKKTQLQLEHLLLDLQMILNGINNYKNPKLTRMLTFKFYMPKKATELKHLQCLEEELKPLEEVLNLAQSKC(PEG 20 kDa)FHLRPRDLISRINVIVLELKGSETTFMCEYADETATIVEFLNRWITFSQSIISTLT
For B6, the AUC inf [3] was 22882.36 ± 3522.54 ng·h/mL, the AUClast [3] was 21762.28 ± 3586.39 ng·h/mL and the CL [3] was 44.4±6.99. For the same molecule, the Cmax [3] was 1276.71 ± 273.3 ng/mL, the MRT [3] was 11.68 ± 0.08 h and the T1/2 [3] was 7.62 ± 0.57 h. The Tmax [3] was 4 to 8 h and the EC50 [4] was 6.14 nM.
